Results on 7 molecules are retold here after article PMC6730887, “FKBP51 and FKBP12.6—Novel and tight interactors of Glomulin” (PLoS ONE, 2019).

A word on the IC50: it is the concentration that gives 50% inhibition.

Read-outs that look alike come from different tables or passages of the source.

Assay [1] deals with T1, GST-Glmn (Glomulin) (UniProt Q92990 1-594).
T1 chain: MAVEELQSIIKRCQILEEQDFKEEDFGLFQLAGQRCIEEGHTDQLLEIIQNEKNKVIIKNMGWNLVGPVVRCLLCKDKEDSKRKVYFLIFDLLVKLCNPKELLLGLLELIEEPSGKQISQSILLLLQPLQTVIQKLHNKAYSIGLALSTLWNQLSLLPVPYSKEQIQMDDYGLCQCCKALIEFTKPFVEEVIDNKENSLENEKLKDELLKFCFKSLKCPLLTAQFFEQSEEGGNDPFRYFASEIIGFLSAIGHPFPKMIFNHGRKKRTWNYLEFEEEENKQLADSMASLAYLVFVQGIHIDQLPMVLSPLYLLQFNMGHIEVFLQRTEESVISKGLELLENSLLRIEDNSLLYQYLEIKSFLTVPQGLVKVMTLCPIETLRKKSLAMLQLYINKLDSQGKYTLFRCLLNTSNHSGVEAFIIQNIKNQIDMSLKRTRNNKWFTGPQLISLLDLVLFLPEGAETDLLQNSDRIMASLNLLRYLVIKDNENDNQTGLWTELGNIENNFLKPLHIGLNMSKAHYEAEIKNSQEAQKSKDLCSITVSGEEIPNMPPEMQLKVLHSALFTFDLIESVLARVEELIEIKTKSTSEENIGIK
Nature of the assay: FRET.

Assay [2] has as its target T2, GST-Glmn (Glomulin) (UniProt Q92990 1-594).
T2 construct: Glomulin (Glmn); GST is detected by the anti-GST-Tb cryptate antibody in the HTRF assays; also called GST-tagged Glmn; FAP48; source: E. coli BL21(DE3), purified (glutathione beads, SEC)
T2 sequence (looked up): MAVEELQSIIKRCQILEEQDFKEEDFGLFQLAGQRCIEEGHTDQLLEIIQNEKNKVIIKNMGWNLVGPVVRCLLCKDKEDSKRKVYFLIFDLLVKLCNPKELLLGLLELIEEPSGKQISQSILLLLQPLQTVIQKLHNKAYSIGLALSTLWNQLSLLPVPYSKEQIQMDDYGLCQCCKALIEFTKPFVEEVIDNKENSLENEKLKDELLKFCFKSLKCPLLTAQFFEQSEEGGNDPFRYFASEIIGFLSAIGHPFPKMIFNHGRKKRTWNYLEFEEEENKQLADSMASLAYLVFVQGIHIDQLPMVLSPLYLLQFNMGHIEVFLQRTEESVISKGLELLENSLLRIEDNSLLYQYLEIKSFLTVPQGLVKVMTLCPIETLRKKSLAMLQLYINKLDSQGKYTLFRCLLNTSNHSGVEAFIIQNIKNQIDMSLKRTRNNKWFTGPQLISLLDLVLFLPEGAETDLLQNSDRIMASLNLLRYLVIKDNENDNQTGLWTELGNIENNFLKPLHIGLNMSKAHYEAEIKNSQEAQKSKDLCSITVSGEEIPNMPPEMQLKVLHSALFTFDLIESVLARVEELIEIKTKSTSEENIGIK
The experiment in a line: AlphaScreen or HTRF; competitive HTRF: unlabelled FKBP titrated against 30 nM FKBP51FK1-5-MF and 30 nM GST-Glmn with Anti GST-Tb cryptate; 20 mM HEPES, 5% glycerol, 20 mM NaCl, 10 mM DTT, pH 8.0; room temperature, 1 h. The note with it: both partners purified.

In assay [3] the target is T1, GST-Glmn (Glomulin). The experiment in a line: FRET.
In assay [4] the target is T1, GST-Glmn (Glomulin). The experiment in a line: FRET.

B1: His-FKBP52FK1 (domain or fragment)
chain: GDRVFVHYTGWLLDGTKFDSSLDRKDKFSFDLGKGEVIKAWDIAIATMKVGEVCHITCKPEYAYGSAGSPPKIPPNATLVFEVELFEFK
B1 returned an IC50 in assay [1] of 362 nM.

B2: His-FKBP51-Strep (full length) (natural protein, UniProt Q13451 1-457, looked up)
chain: MTTDEGAKNNEESPTATVAEQGEDITSKKDRGVLKIVKRVGNGEETPMIGDKVYVHYKGKLSNGKKFDSSHDRNEPFVFSLGKGQVIKAWDIGVATMKKGEICHLLCKPEYAYGSAGSLPKIPSNATLFFEIELLDFKGEDLFEDGGIIRRTKRKGEGYSNPNEGATVEIHLEGRCGGRMFDCRDVAFTVGEGEDHDIPIGIDKALEKMQREEQCILYLGPRYGFGEAGKPKFGIEPNAELIYEVTLKSFEKAKESWEMDTKEKLEQAAIVKEKGTVYFKGGKYMQAVIQYGKIVSWLEMEYGLSEKESKASESFLLAAFLNLAMCYLKLREYTKAVECCDKALGLDSANEKGLYRRGEAQLLMNEFESAKGDFEKVLEVNPQNKAARLQISMCQKKAKEHNERDRRIYANMFKKFAEQDAKEEANKAMGKKTSEGVTNEKGTDSQAMEEEKPEGHV
notes: FKBP51, full length; in pProEx-HTA, used as previously described; also called FKBP51FL; full-length FKBP51; source: E. coli BL21(DE3), purified (Ni-NTA, SEC)
Regarding B2, the “fold difference in competition between full-length protein and the isolated FK506-binding domain” value in assay [2] came out at 4 fold. Further, the IC50 in assay [1] was determined as 96 nM.

B3: His-FKBP52-Strep (full length) (natural protein, UniProt Q02790 1-459, looked up)
chain: MTAEEMKATESGAQSAPLPMEGVDISPKQDEGVLKVIKREGTGTEMPMIGDRVFVHYTGWLLDGTKFDSSLDRKDKFSFDLGKGEVIKAWDIAIATMKVGEVCHITCKPEYAYGSAGSPPKIPPNATLVFEVELFEFKGEDLTEEEDGGIIRRIQTRGEGYAKPNEGAIVEVALEGYYKDKLFDQRELRFEIGEGENLDLPYGLERAIQRMEKGEHSIVYLKPSYAFGSVGKEKFQIPPNAELKYELHLKSFEKAKESWEMNSEEKLEQSTIVKERGTVYFKEGKYKQALLQYKKIVSWLEYESSFSNEEAQKAQALRLASHLNLAMCHLKLQAFSAAIESCNKALELDSNNEKGLFRRGEAHLAVNDFELARADFQKVLQLYPNNKAAKTQLAVCQQRIRRQLAREKKLYANMFERLAEEENKAKAEASSGDHPTDTEMKEEQKSNTAGSQSQVETEA
notes: FKBP52, full length; in pProEx-HTA, used as previously described; also called FKBP52FL; full-length FKBP52; source: E. coli BL21(DE3), purified (Ni-NTA, SEC)
Regarding B3, in assay [2], the “fold better competition than its FK1 domain” value was approximately 19 fold.

B4: His-FKBP51FK1 (aa16-140) (domain or fragment)
chain: ATVAEQGEDITSKKDRGVLKIVKRVGNGEETPMIGDKVYVHYKGKLSNGKKFDSSHDRNEPFVFSLGKGQVIKAWDIGVATMKKGEICHLLCKPEYAYGSAGSLPKIPSNATLFFEIELLDFKGE
As to B4, the IC50 in assay [3] was determined as 380 nM; in assay [1], 372 nM.

B5: His-FKBP51FK1 (FD67/68DV) (domain or fragment)
chain: MTTDEGAKNNEESPTATVAEQGEDITSKKDRGVLKIVKRVGNGEETPMIGDKVYVHYKGKLSNGKKDVSSHDRNEPFVFSLGKGQVIKAWDIGVATMKKGEICHLLCKPEYAYGSAGSLPKIPSNATLFFEIELLDFKGE
For B5, the IC50 in assay [4] was 15600 nM.

B6: His-FKBP51FK1 (1-140) (domain or fragment)
chain: MTTDEGAKNNEESPTATVAEQGEDITSKKDRGVLKIVKRVGNGEETPMIGDKVYVHYKGKLSNGKKFDSSHDRNEPFVFSLGKGQVIKAWDIGVATMKKGEICHLLCKPEYAYGSAGSLPKIPSNATLFFEIELLDFKGE
In the case of B6, in assay [3], the IC50 worked out at 383 nM.

B7: His-FKBP51FK1 (F67V) (domain or fragment)
chain: MTTDEGAKNNEESPTATVAEQGEDITSKKDRGVLKIVKRVGNGEETPMIGDKVYVHYKGKLSNGKKVDSSHDRNEPFVFSLGKGQVIKAWDIGVATMKKGEICHLLCKPEYAYGSAGSLPKIPSNATLFFEIELLDFKGE
For the molecule B7, in assay [3], the IC50 turned out to be 880 nM.
